Tests used:
[1] = biological target: soluble human FcRn (human) (UniProt P55899); assay: SPR (Biacore 3000); ch4420 captured on protein-FITC surface; 500 nM hFcRn injected; pH 6.0
[2] = biological target: soluble human FcγRIIB (human) (UniProt P31994); assay: SPR (BIACORE); koff compared with wild-type Fc
[3] = biological target: soluble human FcγRIIIA V158 (human) (UniProt P08637); assay: SPR (BIACORE); koff compared with wild-type Fc
CD32A^H = CD32A^H (UniProt P12318); assay: SPR (BIACORE); koff compared with wild-type Fc
Sequence of UniProt P12318 (P12318 34-217 limits assumed): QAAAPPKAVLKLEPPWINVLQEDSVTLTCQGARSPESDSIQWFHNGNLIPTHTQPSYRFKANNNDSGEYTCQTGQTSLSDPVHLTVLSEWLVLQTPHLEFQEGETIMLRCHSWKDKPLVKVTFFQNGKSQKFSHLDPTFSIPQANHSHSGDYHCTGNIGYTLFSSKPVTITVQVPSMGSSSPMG

[4] = biological target: soluble human FcγRIIIA F158 (human) (UniProt P08637); assay: SPR (BIACORE); koff compared with wild-type Fc

Sequence of UniProt P31994 (P31994 43-217 limits assumed): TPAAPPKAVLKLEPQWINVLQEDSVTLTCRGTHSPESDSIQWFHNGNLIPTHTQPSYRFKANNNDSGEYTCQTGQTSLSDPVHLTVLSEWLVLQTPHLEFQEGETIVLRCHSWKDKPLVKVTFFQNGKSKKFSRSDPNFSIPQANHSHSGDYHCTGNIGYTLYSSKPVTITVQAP

Substance | fold increase of binding response over wild type [1] [fold] | ratio WT koff/mutant koff [2] [fold] | ratio WT koff/mutant koff [3] [fold] | ratio WT koff/mutant koff (CD32A^H) [fold] | ratio WT koff/mutant koff [4] [fold]
ch4420 variant H435K (antibody) | < 4 | – | – | – | –
Fc mutant 2 (D270E) | – | 0.4 | 1.3 | 2.2 | –
Fc mutant 14 (F243L R292P P396L) | – | 0.4 | 6.3 | 1.4 | –
Fc mutant 8 (P396L) | – | 2.6 | 1.3 | 1.6 | –
Fc mutant 9 (F243L P396L) | – | 1.6 | – | 1.5 | –
Fc mutant 12 (F243L R292P Y300L) | – | 0.6 | 7.4 | 1 | 4.6
Fc mutant 18 (F243L R292P Y300L V305I P396L) | – | 1.4 | 10.1 | 3.2 | 8.3
Fc mutant 15 (R292P V305I P396L) | – | 0.9 | 1.9 | 1.5 | 1.9
Fc mutant 6 (V305I) | – | 1.2 | 0.9 | 1.3 | 0.6
Fc mutant 3 (R292P) | – | 0.3 | 2.4 | 0.7 | 1.6
Fc mutant 17 (F243L R292P V305I P396L) | – | 0.4 | 4 | 0.8 | 2.3
Fc mutant 10 (F243L R292P) | – | 0.2 | 4 | 0.5 | –

Results, then the substance that gave them:

fold increase of binding response over wild type [1] [fold] | ratio WT koff/mutant koff [2] [fold] | ratio WT koff/mutant koff [3] [fold] | ratio WT koff/mutant koff (CD32A^H) [fold] | ratio WT koff/mutant koff [4] [fold] | Substance
– | 0.8 | 4.8 | 0.6 | – | Fc mutant 1 (F243L)
– | 1.1 | 10.1 | 1.7 | 5.6 | Fc mutant 16 (F243L R292P Y300L P396L)
– | 1.2 | – | 2.9 | 1.2 | Fc mutant 5 (Y300L)
– | 0.4 | – | 0.8 | – | Fc mutant 11 (R292P V305I)
– | 0.3 | 0.6 | 0.4 | 1.2 | Fc mutant 7 (A330V)
– | 0.1 | 2.6 | 0.2 | 1.4 | Fc mutant 13 (F243L R292P V305I)
– | 0.2 | – | – | – | Fc mutant 4 (S298N)

From patent US20190010243A1
